Key:
[1] = biological target: T1, Human IL-33 (Axxora/Adipogen AG-40B-0038) (human, UniProt O95760 112-270, limits assumed); experiment: cell-based or functional assay
T1 sequence (looked up): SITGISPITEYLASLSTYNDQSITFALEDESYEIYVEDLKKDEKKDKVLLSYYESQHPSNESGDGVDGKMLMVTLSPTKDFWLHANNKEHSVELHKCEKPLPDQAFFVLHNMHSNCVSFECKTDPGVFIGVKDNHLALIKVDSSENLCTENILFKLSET

[2] = biological target: T1, Human IL-33 (Axxora/Adipogen …); experiment: cell-based or functional assay; remark: listed apart in the source
[3] = biological target: T1, Human IL-33 (Axxora/Adipogen …); experiment: HTRF epitope competition: unlabelled IgG against DyLight labelled H338L293 for biotinylated human IL-33
[4] = biological target: T2, 33_640237-2B IgG1; experiment: HTRF: unlabelled test protein competes with biotinylated human IL33-01 for DyLight650 labelled 33_640237-2B IgG
T2 construct: IgG1
Protocol: Human, cyno and mouse IL-33 FLAG® His (described in Example 1 and Table 21), Human IL-1 alpha and IL-1 beta (R&D Systems) (Table 21) or rat IL-33 (GenScript) were tested for inhibition of human IL-33 binding to DyLight650 labelled 33_640087-7B or DyLight650 labelled 33_640237-2B by adding 5 microlitres of each dilution of sample to a 384 well low volume assay plate (Costar, 3673). […] This was followed by the addition of 2.5 microlitres of a solution containing 0.12 nM biotinylated human IL-33-01 combined with 0.75 nM streptavidin cryptate detection (Cisbio International, 610SAKLB). All dilutions were performed in assay buffer containing 0.8 M potassium fluoride (VWR, 26820.236) and 0.1% bovine serum albumin (BSA, PAA, K05-013) in Dulbeccos PBS (Invitrogen, 14190185). Assay plates were incubated for 4 hours at room temperature followed by 18 hours at 4 degrees Celsius and time resolved fluorescence was read at 620 nm and 665 nm emission wavelengths using an EnVision plate reader (Perkin Elmer). Data were analysed by calculating the 665/620 nm ratio followed by the % Delta F values for each sample. The 665/620 nm ratio was used to correct for sample interference using Equation 1. The % Delta F for each sample was then calculated using Equation 2. The negative control (non-specific binding) was defined by replacing biotinylated human IL-33 combined with streptavidin cryptate detection with streptavidin cryptate detection only. The % Delta F values were subsequently used to calculate % specific binding as described in Equation 3. IC₅₀ values were determined using GraphPad Prism software by curve fitting using a four-parameter logistic equation (Equation 4).

B1: H338L293 IgG1 (as in Table 13) (antibody, V domains shown)
VH: EVQLLESGGGLVQPGGSLRLSCAASGFTFSSYAMSWVRQAPGKGLEWVSAISPREGWQYYADSVKGRFTISRDNSKNTLYLQMNSLRAEDTAVYYCVRVVAGYFDSWGRGTLVTVSS
VL: SYVLTQPPSVSVSPGQTARITCSGDALPKQYAHWYQQKPGQAPALVIYKDTERPSGIPERFSGSSSGTTVTLTISGVQAEDEADYYCMSSDPSGASRVFGGGTKVTVL
notes: IgG1
Huvec IL-6 production, maximum inhibition [1]: ~70% | Mast cell IL-6 production, inhibition [1]: 100% | IC50, Huvec IL-6 production [2]: 1.9 nM | IC50, Mast cell IL-6 production [2]: 1.7 nM | IC50 (read off the curve) [3]: ~1 nM

B2: IL330388 IgG1 (antibody, V domains shown)
VH: EVQLLESGGGLVQPGGSLRLSCAASGFTFSSYAMSWVRQAPGKGLEWVSASTPWQGSTYYADSVKGRFTISRDNSKNTLYLQMNSLRAEDTAVYYCVRWYWGWIDSWGRGTLVTVSS
VL: SYVLTQPPSVSVSPGQTARITCSGDALPKQYAHWYQQKPGQAPALVIYKDTERPSGIPERFSGSSSGTTVTLTISGVQAEDEADYYCMSSDPSGASRVFGGGTKVTVL
notes: IgG1; also called IL3300388
Huvec IL-6 production, maximum inhibition [1]: ~70% | Mast cell IL-6 production, inhibition [1]: 100% | IC50 (read off the curve) [3]: ~1 nM

B3: IL330396 IgG1 (antibody, V domains shown)
VH: EVQLLESGGGLVQPGGSLRLSCAASGFTFSSYAMSWVRQAPGKGLEWVSASTPWQGSTYYADSVKGRFTISRDNSKNTLYLQMNSLRAEDTAVYYCVRWYWGWIDSWGRGTLVTVSS
VL: SYVLTQPPSVSVSPGQTARITCSGDALPKQYAHWYQQKPGQAPALVIYKDTERPSGIPERFSGSSSGTTVTLTISGVQAEDEADYYCMSSDDTGASRVFGGGTKVTVL
notes: IgG1; also called IL3300396
Huvec IL-6 production, maximum inhibition [1]: ~70% | Mast cell IL-6 production, inhibition [1]: 100% | IC50 (read off the curve) [3]: ~1 nM

B4: Mouse IL-33 Flag®His (ligand)
chain: SIQGTSLLTQSPASLSTYNDQSVSFVLENGCYVINVDDSGKDQEQDQVLLRYYESPCPASQSGDGVDGKKLMVNMSPIKDTDIWLHANDKDYSVELQRGDVSPPEQAFFVLHKKSSDFVSFECKNLPGTYIGVKDNQLALVEEKDESCNNIMFKLSKINPAFLYKVVGAADYKDDDDKAAHHHHHHHHHH
notes: C-terminal FLAG 10xHis tag, E. coli; also called Mature Mouse IL-33_FH; mouse IL-33 FH
binding result [4]: no binding (tested: about 10^-5.5 M)

— patent US20200353078A1 (AstraZeneca / MedImmune, published 2020)
